Measurements reported in IntAct's records for PubMed 35512704.

B1: Speckle-type POZ protein (Homo sapiens), O43791 (parent)
chain: MSRVPSPPPPAEMSSGPVAESWCYTQIKVVKFSYMWTINNFSFCREEMGEVIKSSTFSSGANDKLKWCLRVNPKGLDEESKDYLSLYLLLVSCPKSEVRAKFKFSILNAKGEETKAMESQRAYRFVQGKDWGFKKFIRRDFLLDEANGLLPDDKLTLFCEVSVVQDSVNISGQNTMNMVKVPECRLADELGGLWENSRFTDCCLCVAGQEFQAHKAILAARSPVFSAMFEHEMEESKKNRVEINDVEPEVFKEMMCFIYTGKAPNLDKMADDLLAAADKYALERLKVMCEDALCSNLSVENAAEILILADLHSADQLKTQAVDFINYHASDVLETSGWKSMVVSHPHLVAEAYRSLASAQCPFLGPPRKRLKQS
partner: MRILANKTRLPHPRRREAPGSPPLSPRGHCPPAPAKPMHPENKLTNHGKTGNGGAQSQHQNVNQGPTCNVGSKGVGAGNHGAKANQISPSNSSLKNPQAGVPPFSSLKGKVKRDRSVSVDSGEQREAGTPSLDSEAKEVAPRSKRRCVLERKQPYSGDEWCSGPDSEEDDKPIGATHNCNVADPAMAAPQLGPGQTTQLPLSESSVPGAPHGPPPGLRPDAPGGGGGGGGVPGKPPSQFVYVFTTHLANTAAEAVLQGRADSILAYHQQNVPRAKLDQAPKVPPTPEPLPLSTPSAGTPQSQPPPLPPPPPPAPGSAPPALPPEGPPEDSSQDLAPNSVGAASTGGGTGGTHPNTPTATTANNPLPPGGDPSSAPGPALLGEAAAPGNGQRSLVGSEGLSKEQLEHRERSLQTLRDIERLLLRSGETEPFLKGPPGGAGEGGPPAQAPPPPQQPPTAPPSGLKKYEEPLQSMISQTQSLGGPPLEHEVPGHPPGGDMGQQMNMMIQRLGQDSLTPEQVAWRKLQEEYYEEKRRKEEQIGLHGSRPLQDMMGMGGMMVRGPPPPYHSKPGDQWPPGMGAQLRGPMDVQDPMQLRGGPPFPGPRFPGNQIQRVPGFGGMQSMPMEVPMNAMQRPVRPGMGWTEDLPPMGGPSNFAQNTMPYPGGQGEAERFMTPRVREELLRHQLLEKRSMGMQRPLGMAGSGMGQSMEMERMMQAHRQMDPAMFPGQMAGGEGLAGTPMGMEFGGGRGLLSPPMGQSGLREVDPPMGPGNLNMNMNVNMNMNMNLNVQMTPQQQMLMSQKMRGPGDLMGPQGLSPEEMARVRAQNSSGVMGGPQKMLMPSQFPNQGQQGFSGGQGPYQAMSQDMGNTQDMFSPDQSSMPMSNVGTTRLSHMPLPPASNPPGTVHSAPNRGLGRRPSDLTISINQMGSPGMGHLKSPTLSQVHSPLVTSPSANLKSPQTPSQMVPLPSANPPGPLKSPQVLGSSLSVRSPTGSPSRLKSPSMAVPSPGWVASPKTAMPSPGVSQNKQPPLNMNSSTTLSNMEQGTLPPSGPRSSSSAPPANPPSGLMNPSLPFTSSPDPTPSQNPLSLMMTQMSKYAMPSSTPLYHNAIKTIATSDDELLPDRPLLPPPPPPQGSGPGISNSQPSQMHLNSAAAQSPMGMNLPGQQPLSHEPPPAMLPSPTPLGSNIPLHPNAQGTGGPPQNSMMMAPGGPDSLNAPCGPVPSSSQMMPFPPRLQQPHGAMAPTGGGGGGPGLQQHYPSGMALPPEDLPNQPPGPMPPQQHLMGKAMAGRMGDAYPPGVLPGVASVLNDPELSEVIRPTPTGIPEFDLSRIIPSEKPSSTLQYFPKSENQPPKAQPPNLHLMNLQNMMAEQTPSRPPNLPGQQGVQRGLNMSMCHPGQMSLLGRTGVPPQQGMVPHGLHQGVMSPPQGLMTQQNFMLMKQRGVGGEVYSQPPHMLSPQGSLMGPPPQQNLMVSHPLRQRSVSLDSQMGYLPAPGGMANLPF
B2: Speckle-type POZ protein (Homo sapiens), O43791 (parent)
chain: B1 chain
partner: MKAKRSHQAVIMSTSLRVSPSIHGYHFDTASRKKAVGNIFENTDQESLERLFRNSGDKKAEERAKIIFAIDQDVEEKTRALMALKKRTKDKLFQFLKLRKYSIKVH
B3: Speckle-type POZ protein (Homo sapiens), O43791 (parent)
chain: B1 chain
partner: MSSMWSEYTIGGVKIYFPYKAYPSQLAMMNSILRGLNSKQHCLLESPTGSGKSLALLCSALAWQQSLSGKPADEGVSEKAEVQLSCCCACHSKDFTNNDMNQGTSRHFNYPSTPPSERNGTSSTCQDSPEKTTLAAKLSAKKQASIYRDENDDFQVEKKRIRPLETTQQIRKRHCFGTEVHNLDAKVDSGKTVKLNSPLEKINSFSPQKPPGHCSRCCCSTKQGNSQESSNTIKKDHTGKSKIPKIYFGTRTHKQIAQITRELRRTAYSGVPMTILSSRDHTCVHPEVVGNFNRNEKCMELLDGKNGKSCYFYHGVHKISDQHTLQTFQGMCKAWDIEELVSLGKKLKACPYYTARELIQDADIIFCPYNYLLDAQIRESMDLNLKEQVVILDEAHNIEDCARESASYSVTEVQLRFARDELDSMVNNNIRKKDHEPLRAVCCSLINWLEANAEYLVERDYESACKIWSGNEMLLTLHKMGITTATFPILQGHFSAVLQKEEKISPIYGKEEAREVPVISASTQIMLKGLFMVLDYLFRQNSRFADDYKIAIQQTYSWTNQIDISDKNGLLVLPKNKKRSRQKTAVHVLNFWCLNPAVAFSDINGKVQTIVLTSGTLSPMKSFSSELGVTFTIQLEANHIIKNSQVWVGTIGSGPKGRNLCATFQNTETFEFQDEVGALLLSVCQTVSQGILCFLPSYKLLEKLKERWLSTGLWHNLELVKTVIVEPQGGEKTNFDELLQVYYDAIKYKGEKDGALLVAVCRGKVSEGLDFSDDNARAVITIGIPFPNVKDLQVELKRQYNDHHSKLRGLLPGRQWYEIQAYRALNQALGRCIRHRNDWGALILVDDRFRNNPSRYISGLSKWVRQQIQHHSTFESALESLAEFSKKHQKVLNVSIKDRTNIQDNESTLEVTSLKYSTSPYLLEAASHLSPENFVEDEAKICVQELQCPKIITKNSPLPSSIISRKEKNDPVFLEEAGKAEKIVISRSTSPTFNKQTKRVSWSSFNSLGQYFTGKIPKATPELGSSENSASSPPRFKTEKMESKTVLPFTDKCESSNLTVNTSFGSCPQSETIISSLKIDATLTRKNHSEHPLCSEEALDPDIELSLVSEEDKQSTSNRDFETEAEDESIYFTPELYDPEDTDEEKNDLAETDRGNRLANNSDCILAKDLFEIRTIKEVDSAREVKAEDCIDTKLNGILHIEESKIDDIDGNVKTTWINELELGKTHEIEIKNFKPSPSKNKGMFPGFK

Variants of: B1
Details: with bcl9l_human BCL9L

Row | effect of a mutation on the interaction | Variant
1 | with no effect | MSRVPSPPPPAEMSSGPVAESWCYTQIKVVKFSYMWTINNFSFCREEMGEVIKSSTFSSGANDKLKWCLRVNPKGLDEESKDYLSLYLLLVSCPKSEVRAKFKFSILNAKGEETKAMESQRAYRFVQGKDWGVKKFIRRDFLLDEANGLLPDDKLTLFCEVSVVQDSVNISGQNTMNMVKVPECRLADELGGLWENSRFTDCCLCVAGQEFQAHKAILAARSPVFSAMFEHEMEESKKNRVEINDVEPEVFKEMMCFIYTGKAPNLDKMADDLLAAADKYALERLKVMCEDALCSNLSVENAAEILILADLHSADQLKTQAVDFINYHASDVLETSGWKSMVVSHPHLVAEAYRSLASAQCPFLGPPRKRLKQS [F133V]

Variants of: B2
Details: with tcim_human TCIM

Row | effect of a mutation on the interaction | Variant
2 | with no effect | MSRVPSPPPPAEMSSGPVAESWCYTQIKVVKFSYMWTINNFSFCREEMGEVIKSSTFSSGANDKLKWCLRVNPKGLDEESKDYLSLCLLLVSCPKSEVRAKFKFSILNAKGEETKAMESQRAYRFVQGKDWGFKKFIRRDFLLDEANGLLPDDKLTLFCEVSVVQDSVNISGQNTMNMVKVPECRLADELGGLWENSRFTDCCLCVAGQEFQAHKAILAARSPVFSAMFEHEMEESKKNRVEINDVEPEVFKEMMCFIYTGKAPNLDKMADDLLAAADKYALERLKVMCEDALCSNLSVENAAEILILADLHSADQLKTQAVDFINYHASDVLETSGWKSMVVSHPHLVAEAYRSLASAQCPFLGPPRKRLKQS [Y87C]

Variants of: B2
Details: with tcim_human TCIM
Remark: another data set of the same source

Row | effect of a mutation on the interaction | Variant
3 | with no effect | MSRVPSPPPPAEMSSGPVAESWCYTQIKVVKFSYMWTINNFSFCREEMGEVIKSSTFSSGANDKLKWCLRVNPKGLDEESKDYLSLYLLLVSCPKSEVRAKCKFSILNAKGEETKAMESQRAYRFVQGKDWGFKKFIRRDFLLDEANGLLPDDKLTLFCEVSVVQDSVNISGQNTMNMVKVPECRLADELGGLWENSRFTDCCLCVAGQEFQAHKAILAARSPVFSAMFEHEMEESKKNRVEINDVEPEVFKEMMCFIYTGKAPNLDKMADDLLAAADKYALERLKVMCEDALCSNLSVENAAEILILADLHSADQLKTQAVDFINYHASDVLETSGWKSMVVSHPHLVAEAYRSLASAQCPFLGPPRKRLKQS [F102C]

Variants of: B2
Details: with tcim_human TCIM
Remark: another data set of the same source

Row | effect of a mutation on the interaction | Variant
4 | with no effect | MSRVPSPPPPAEMSSGPVAESWCYTQIKVVKFSYMWTINNFSFCREEMGEVIKSSTFSSGANDKLKWCLRVNPKGLDEESKDYLSLYLLLVSCPKSEVRAKFKFSILNAKGEETKAMESQRAYRFVQGKDWGVKKFIRRDFLLDEANGLLPDDKLTLFCEVSVVQDSVNISGQNTMNMVKVPECRLADELGGLWENSRFTDCCLCVAGQEFQAHKAILAARSPVFSAMFEHEMEESKKNRVEINDVEPEVFKEMMCFIYTGKAPNLDKMADDLLAAADKYALERLKVMCEDALCSNLSVENAAEILILADLHSADQLKTQAVDFINYHASDVLETSGWKSMVVSHPHLVAEAYRSLASAQCPFLGPPRKRLKQS [F133V]

Variants of: B2
Details: with tcim_human TCIM
Remark: another data set of the same source

Row | effect of a mutation on the interaction | Variant
5 | with no effect | MSRVPSPPPPAEMSSGPVAESWCYTQIKVVKFSYMWTINNFSFCREEMGEVIKSSTFSSGANDKLKWCLRVNPKGLDEESKDYLSLYLLLVSCPKSEVRAKFKFSILNAKGEETKAMESQRAYRFVQGKDWGLKKFIRRDFLLDEANGLLPDDKLTLFCEVSVVQDSVNISGQNTMNMVKVPECRLADELGGLWENSRFTDCCLCVAGQEFQAHKAILAARSPVFSAMFEHEMEESKKNRVEINDVEPEVFKEMMCFIYTGKAPNLDKMADDLLAAADKYALERLKVMCEDALCSNLSVENAAEILILADLHSADQLKTQAVDFINYHASDVLETSGWKSMVVSHPHLVAEAYRSLASAQCPFLGPPRKRLKQS [F133L]

Variants of: B3
Details: with fancj_human BRIP1, Q9BX63

Row | effect of a mutation on the interaction | Variant
6 | with no effect | MSRVPSPPPPAEMSSGPVAESWCYTQIKVVKFSYMWTINNFSFCREEMGEVIKSSTFSSGANDKLKWCLRVNPKGLDEESKDYLSLYLLLVSCPKSEVRAKCKFSILNAKGEETKAMESQRAYRFVQGKDWGFKKFIRRDFLLDEANGLLPDDKLTLFCEVSVVQDSVNISGQNTMNMVKVPECRLADELGGLWENSRFTDCCLCVAGQEFQAHKAILAARSPVFSAMFEHEMEESKKNRVEINDVEPEVFKEMMCFIYTGKAPNLDKMADDLLAAADKYALERLKVMCEDALCSNLSVENAAEILILADLHSADQLKTQAVDFINYHASDVLETSGWKSMVVSHPHLVAEAYRSLASAQCPFLGPPRKRLKQS [F102C]

Variants of: B3
Details: with fancj_human BRIP1, Q9BX63
Remark: another data set of the same source

Row | effect of a mutation on the interaction | Variant
7 | with no effect | MSRVPSPPPPAEMSSGPVAESWCYTQIKVVKFSYMWTINNFSFCREEMGEVIKSSTFSSGANDKLKWCLRVNPKGLDEESKDYLSLYLLLVSCPKSEVRAKFKFSILNAKGEETKAMESQRAYRFVQGKDWGVKKFIRRDFLLDEANGLLPDDKLTLFCEVSVVQDSVNISGQNTMNMVKVPECRLADELGGLWENSRFTDCCLCVAGQEFQAHKAILAARSPVFSAMFEHEMEESKKNRVEINDVEPEVFKEMMCFIYTGKAPNLDKMADDLLAAADKYALERLKVMCEDALCSNLSVENAAEILILADLHSADQLKTQAVDFINYHASDVLETSGWKSMVVSHPHLVAEAYRSLASAQCPFLGPPRKRLKQS [F133V]

Variants of: B3
Details: with fancj_human BRIP1, Q9BX63
Remark: another data set of the same source

Row | effect of a mutation on the interaction | Variant
8 | with no effect | MSRVPSPPPPAEMSSGPVAESWCYTQIKVVKFSYMWTINNFSFCREEMGEVIKSSTFSSGANDKLKWCLRVNPKGLDEESKDYLSLYLLLVSCPKSEVRAKFKFSILNAKGEETKAMESQRAYRFVQGKDWGLKKFIRRDFLLDEANGLLPDDKLTLFCEVSVVQDSVNISGQNTMNMVKVPECRLADELGGLWENSRFTDCCLCVAGQEFQAHKAILAARSPVFSAMFEHEMEESKKNRVEINDVEPEVFKEMMCFIYTGKAPNLDKMADDLLAAADKYALERLKVMCEDALCSNLSVENAAEILILADLHSADQLKTQAVDFINYHASDVLETSGWKSMVVSHPHLVAEAYRSLASAQCPFLGPPRKRLKQS [F133L]
